Assay results reported in article PMC5510989.

B1: MBP-DDX1 WT (DEAD-Box Protein 1 fused to maltose binding protein) (enzyme)
chain: MAAFSEMGVMPEIAQAVEEMDWLLPTDIQAESIPLILGGGDVLMAAETGSGKTGAFSIPVIQIVYETLKDQQEGKKGKTTIKTGASVLNKWQMNPYDRGSAFAIGSDGLCCQSREVKEWHGCRATKGLMKGKHYYEVSCHDQGLCRVGWSTMQASLDLGTDKFGFGFGGTGKKSHNKQFDNYGEEFTMHDTIGCYLDIDKGHVKFSKNGKDLGLAFEIPPHMKNQALFPACVLKNAELKFNFGEEEFKFPPKDGFVALSKAPDGYIVKSQHSGNAQVTQTKFLPNAPKALIVEPSRELAEQTLNNIKQFKKYIDNPKLRELLIIGGVAARDQLSVLENGVDIVVGTPGRLDDLVSTGKLNLSQVRFLVLDEADGLLSQGYSDFINRMHNQIPQVTSDGKRLQVIVCSATLHSFDVKKLSEKIMHFPTWVDLKGEDSVPDTVHHVVVPVNPKTDRLWERLGKSHIRTDDVHAKDNTRPGANSPEMWSEAIKILKGEYAVRAIKEHKMDQAIIFCRTKIDCDNLEQYFIQQGGGPDKKGHQFSCVCLHGDRKPHERKQNLERFKKGDVRFLICTDVAARGIDIHGVPYVINVTLPDEKQNYVHRIGRVGRAERMGLAISLVATEKEKVWYHVCSSRGKGCYNTRLKEDGGCTIWYNEMQLLSEIEEHLNCTISQVEPDIKVPVDEFDGKVTYGQKRAAGGGSYKGHVDILAPTVQELAALEKEAQTSFLHLGYLPNQLFRTF
B2: MBP-DDX1 K52N (enzyme)
chain: MAAFSEMGVMPEIAQAVEEMDWLLPTDIQAESIPLILGGGDVLMAAETGSGNTGAFSIPVIQIVYETLKDQQEGKKGKTTIKTGASVLNKWQMNPYDRGSAFAIGSDGLCCQSREVKEWHGCRATKGLMKGKHYYEVSCHDQGLCRVGWSTMQASLDLGTDKFGFGFGGTGKKSHNKQFDNYGEEFTMHDTIGCYLDIDKGHVKFSKNGKDLGLAFEIPPHMKNQALFPACVLKNAELKFNFGEEEFKFPPKDGFVALSKAPDGYIVKSQHSGNAQVTQTKFLPNAPKALIVEPSRELAEQTLNNIKQFKKYIDNPKLRELLIIGGVAARDQLSVLENGVDIVVGTPGRLDDLVSTGKLNLSQVRFLVLDEADGLLSQGYSDFINRMHNQIPQVTSDGKRLQVIVCSATLHSFDVKKLSEKIMHFPTWVDLKGEDSVPDTVHHVVVPVNPKTDRLWERLGKSHIRTDDVHAKDNTRPGANSPEMWSEAIKILKGEYAVRAIKEHKMDQAIIFCRTKIDCDNLEQYFIQQGGGPDKKGHQFSCVCLHGDRKPHERKQNLERFKKGDVRFLICTDVAARGIDIHGVPYVINVTLPDEKQNYVHRIGRVGRAERMGLAISLVATEKEKVWYHVCSSRGKGCYNTRLKEDGGCTIWYNEMQLLSEIEEHLNCTISQVEPDIKVPVDEFDGKVTYGQKRAAGGGSYKGHVDILAPTVQELAALEKEAQTSFLHLGYLPNQLFRTF
B3: MBP-DDX1 L303E (enzyme)
chain: MAAFSEMGVMPEIAQAVEEMDWLLPTDIQAESIPLILGGGDVLMAAETGSGKTGAFSIPVIQIVYETLKDQQEGKKGKTTIKTGASVLNKWQMNPYDRGSAFAIGSDGLCCQSREVKEWHGCRATKGLMKGKHYYEVSCHDQGLCRVGWSTMQASLDLGTDKFGFGFGGTGKKSHNKQFDNYGEEFTMHDTIGCYLDIDKGHVKFSKNGKDLGLAFEIPPHMKNQALFPACVLKNAELKFNFGEEEFKFPPKDGFVALSKAPDGYIVKSQHSGNAQVTQTKFLPNAPKALIVEPSRELAEQTENNIKQFKKYIDNPKLRELLIIGGVAARDQLSVLENGVDIVVGTPGRLDDLVSTGKLNLSQVRFLVLDEADGLLSQGYSDFINRMHNQIPQVTSDGKRLQVIVCSATLHSFDVKKLSEKIMHFPTWVDLKGEDSVPDTVHHVVVPVNPKTDRLWERLGKSHIRTDDVHAKDNTRPGANSPEMWSEAIKILKGEYAVRAIKEHKMDQAIIFCRTKIDCDNLEQYFIQQGGGPDKKGHQFSCVCLHGDRKPHERKQNLERFKKGDVRFLICTDVAARGIDIHGVPYVINVTLPDEKQNYVHRIGRVGRAERMGLAISLVATEKEKVWYHVCSSRGKGCYNTRLKEDGGCTIWYNEMQLLSEIEEHLNCTISQVEPDIKVPVDEFDGKVTYGQKRAAGGGSYKGHVDILAPTVQELAALEKEAQTSFLHLGYLPNQLFRTF
B4: MBP-DDX1 L322E (enzyme)
chain: MAAFSEMGVMPEIAQAVEEMDWLLPTDIQAESIPLILGGGDVLMAAETGSGKTGAFSIPVIQIVYETLKDQQEGKKGKTTIKTGASVLNKWQMNPYDRGSAFAIGSDGLCCQSREVKEWHGCRATKGLMKGKHYYEVSCHDQGLCRVGWSTMQASLDLGTDKFGFGFGGTGKKSHNKQFDNYGEEFTMHDTIGCYLDIDKGHVKFSKNGKDLGLAFEIPPHMKNQALFPACVLKNAELKFNFGEEEFKFPPKDGFVALSKAPDGYIVKSQHSGNAQVTQTKFLPNAPKALIVEPSRELAEQTLNNIKQFKKYIDNPKLRELEIIGGVAARDQLSVLENGVDIVVGTPGRLDDLVSTGKLNLSQVRFLVLDEADGLLSQGYSDFINRMHNQIPQVTSDGKRLQVIVCSATLHSFDVKKLSEKIMHFPTWVDLKGEDSVPDTVHHVVVPVNPKTDRLWERLGKSHIRTDDVHAKDNTRPGANSPEMWSEAIKILKGEYAVRAIKEHKMDQAIIFCRTKIDCDNLEQYFIQQGGGPDKKGHQFSCVCLHGDRKPHERKQNLERFKKGDVRFLICTDVAARGIDIHGVPYVINVTLPDEKQNYVHRIGRVGRAERMGLAISLVATEKEKVWYHVCSSRGKGCYNTRLKEDGGCTIWYNEMQLLSEIEEHLNCTISQVEPDIKVPVDEFDGKVTYGQKRAAGGGSYKGHVDILAPTVQELAALEKEAQTSFLHLGYLPNQLFRTF
B5: MBP-DDX1 G325E (enzyme)
chain: MAAFSEMGVMPEIAQAVEEMDWLLPTDIQAESIPLILGGGDVLMAAETGSGKTGAFSIPVIQIVYETLKDQQEGKKGKTTIKTGASVLNKWQMNPYDRGSAFAIGSDGLCCQSREVKEWHGCRATKGLMKGKHYYEVSCHDQGLCRVGWSTMQASLDLGTDKFGFGFGGTGKKSHNKQFDNYGEEFTMHDTIGCYLDIDKGHVKFSKNGKDLGLAFEIPPHMKNQALFPACVLKNAELKFNFGEEEFKFPPKDGFVALSKAPDGYIVKSQHSGNAQVTQTKFLPNAPKALIVEPSRELAEQTLNNIKQFKKYIDNPKLRELLIIEGVAARDQLSVLENGVDIVVGTPGRLDDLVSTGKLNLSQVRFLVLDEADGLLSQGYSDFINRMHNQIPQVTSDGKRLQVIVCSATLHSFDVKKLSEKIMHFPTWVDLKGEDSVPDTVHHVVVPVNPKTDRLWERLGKSHIRTDDVHAKDNTRPGANSPEMWSEAIKILKGEYAVRAIKEHKMDQAIIFCRTKIDCDNLEQYFIQQGGGPDKKGHQFSCVCLHGDRKPHERKQNLERFKKGDVRFLICTDVAARGIDIHGVPYVINVTLPDEKQNYVHRIGRVGRAERMGLAISLVATEKEKVWYHVCSSRGKGCYNTRLKEDGGCTIWYNEMQLLSEIEEHLNCTISQVEPDIKVPVDEFDGKVTYGQKRAAGGGSYKGHVDILAPTVQELAALEKEAQTSFLHLGYLPNQLFRTF

Molecular target: HIV-1 Rev (Regulator of Expression of Virion), Alexa-labelled (HIV-1 isolate BH10)
Experiment: fluorescence polarisation

Point of comparison: B5, Kd 29 nM. Against it:
- MBP-DDX1 DEAD N-term + SPRY (domain or fragment) — within 1.5-fold, 43 nM
- B1 — 2-fold higher, 59 nM
- B2 — 2.2-fold higher, 65 nM
- B3 — higher, > 700 nM
- B4 — higher, > 500 nM
